Laboratory results reported in article PMC12775136.

Target: UPF1-Hel (human)

“full-length SLBP (SLBPfl) (from UniProt Q14493 1-270) (natural protein)” was tested, and the extent of linear RNA substrate unwound by UPF1-Hel (fluorescence-based nucleic acid unwinding assay) with SLBPfl at equimolar amount to 3-fold molar excess; further decrease at 3-fold excess was 66%.
